Experimental data: patent publication US20160215027A1

Tests used:
human IgG (human) [1] = assay: human IgG binding to commercial gel support (epoxy-activated crosslinked agarose); elution, A280
human IgG (human) [2] = assay: human IgG binding to commercial gel support (ligand at 6 mg/mL gel on epoxy-activated crosslinked agarose); elution, A280

| Substance | Human IgG binding amount (human IgG (human) [1]) [mg/mL gel] | Human IgG binding amount (human IgG (human) [2]) [mg/mL gel] |
| --- | --- | --- |
| tetramer of four linked Z domains of protein A with the introduced C-terminal cysteine residue (ligand of MabSelect SuRe, GE Healthcare Science) (designed binder) | 45.5 | – |
| native sequence protein A with the introduced C-terminal cysteine (ligand of rProtein A-Sepharose FF, GE Healthcare Science) (from UniProt P38507 37-327) | – | 50.1 |
